From patent US20240327526A1 (Amgen, published 2024)

T1: activin type IIB receptor (ActRIIB) on C2C12/pMARE-luc cells co-transfected with ALK4 (Homo sapiens (Human), UniProt Q13705 19-134)
T1 chain: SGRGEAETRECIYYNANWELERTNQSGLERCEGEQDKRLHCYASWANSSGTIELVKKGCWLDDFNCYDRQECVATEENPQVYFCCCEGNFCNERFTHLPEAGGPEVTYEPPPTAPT


Assays:
ActRIIA-huFc [1] = target: T2, ActRIIA-huFc (human); assay: BIAcore
T2 construct: Used biotinylated in the ELISA screens; also called huActRIIA-huFc; biotin-ActRIIA-huFc

ActRIIA-huFc [2] = target: T2, ActRIIA-huFc; assay: binding affinity, method not stated
[3] = target: T1, activin type IIB receptor (ActRIIB) on …; assay: cell-based or functional assay
[4] = target: activin type IIA receptor (ActRIIA) on C2C12/pMARE-luc cells co-transfected with ALK4 (Homo sapiens (Human), UniProt P27037 20-513); assay: cell-based or functional assay
ActRIIA-huFc [5] = target: T2, ActRIIA-huFc; assay: KinExA

T2 sequence (chain, as listed by the source limits assumed): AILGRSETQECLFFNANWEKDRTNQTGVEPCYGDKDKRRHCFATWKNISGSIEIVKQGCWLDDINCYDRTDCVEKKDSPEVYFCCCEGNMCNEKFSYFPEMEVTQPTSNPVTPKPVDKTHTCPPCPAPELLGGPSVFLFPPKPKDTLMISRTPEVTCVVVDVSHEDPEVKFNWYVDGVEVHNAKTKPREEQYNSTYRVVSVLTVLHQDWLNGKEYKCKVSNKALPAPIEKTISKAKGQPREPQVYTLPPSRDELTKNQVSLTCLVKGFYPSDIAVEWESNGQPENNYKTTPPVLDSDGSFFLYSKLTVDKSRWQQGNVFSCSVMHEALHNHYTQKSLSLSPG
activin type IIA receptor (ActRIIA) on C2C12/pMARE-luc cells co-transfected with ALK4, sequence (P27037 20-513): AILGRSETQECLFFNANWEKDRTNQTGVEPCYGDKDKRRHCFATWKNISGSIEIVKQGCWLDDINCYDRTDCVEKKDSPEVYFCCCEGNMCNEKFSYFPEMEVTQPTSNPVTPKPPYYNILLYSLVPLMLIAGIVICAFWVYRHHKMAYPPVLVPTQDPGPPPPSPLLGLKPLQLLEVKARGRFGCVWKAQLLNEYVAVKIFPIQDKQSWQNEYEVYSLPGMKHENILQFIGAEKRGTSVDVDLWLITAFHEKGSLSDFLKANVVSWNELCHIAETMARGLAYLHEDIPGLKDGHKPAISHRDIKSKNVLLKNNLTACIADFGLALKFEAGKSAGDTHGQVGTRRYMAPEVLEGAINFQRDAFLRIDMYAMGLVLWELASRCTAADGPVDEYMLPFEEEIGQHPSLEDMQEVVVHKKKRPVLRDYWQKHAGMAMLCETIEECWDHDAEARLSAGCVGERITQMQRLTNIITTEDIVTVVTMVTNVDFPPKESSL

Row | Kd (ActRIIA-huFc [1]) | Kd (ActRIIA-huFc [2]) | Cell-Based IC50, ActRIIB Signaling (luciferase reporter, C2C12/pMARE-luc cells with ActRIIB + ALK4, 4 nM myostatin or activin) [3] | Cell-Based IC50, ActRIIA Signaling (luciferase reporter, C2C12/pMARE-luc cells with ActRIIA + ALK4, 4 nM myostatin or activin) [4] | Kd (ActRIIA-huFc [5]) | fold improvement of affinity over the parental molecule R31-1 (ActRIIA-huFc [5]) | Binder
1 | 4000 pM | ~1000 pM | 8 nM | 2 nM |  |  | Anti-ActRIIB human IgG R31-1 (antibody, V domains shown, Human IgG2/kappa from Xenomouse immunization with ActRIIB-huFc; also called parental 31-1; parental molecule R31-1) VH: EVQLLESGGGLVQPGGSLRLSCAASGFTFRNYAMSWVRQAPGKGLEWVSGISVTGGSTYYTDSVKGRFTVSRDNSRNTLYLQMNSLRAEDTAVYYCAKVYYSSFFDYWGQGTLVTVSS VL: QTVVTQEPSFSVSPGGTVTLTCGFNSGSVSTSYYPSWYQQTPGQAPRTLIYNTNTRSSGVPDRFSGSILGNKAALTITGAQADDESDYYCVLYMGSGIWVFGGGTKLTVLG
2 |  |  |  |  | < 1 pM | ≥ 1000 fold | M25 (antibody, human IgG2, lambda, V domains shown) VH: EVQLLESGGGLVQPGGSLRLSCAASGFTFRNSAMSWVRQAPGKGLEWVSAISVTGGSTYYTDSVKGRFTVSRDNSRNTLYLQMNSLRAEDTAVYYCAKVYYYSFFDYWGQGTLVTVSS VL: QTVVTQEPSFSVSPGGTVTLTCGFNSGSVSTSYYPSWYQQTPGQAPRTLIYNTNTRSSGVPDRFSGSILGNKAALTITGAQADDESDYYCVLYMGSGIHVFGGGTKLTVLG
3 |  |  |  |  | < 1 pM | ≥ 1000 fold | M37 (antibody, human IgG2, lambda, V domains shown) VH: EVQLLESGGGLVQPGGSLRLSCAASGFTFRNYAMAWVRQAPGKGLEWVSGISVTGGSTFYTDSVKGRFTVSRDNSRNTLYLQMNSLRAEDTAVYYCAKVYYTSFFDYWGQGTLVTVSS VL: QTVVTQEPSFSVSPGGTVTLTCGFNSGSVSTSYYPSWYQQTPGQAPRTLIYNTNTRSSGVPDRFSGSILGNKAALTITGAQADDESDYYCVLWMGSGIWVFGGGTKLTVLG
4 | 1 pM |  | 2 nM |  | < 1 pM | ≥ 1000 fold | M43 (antibody, human IgG2, lambda, V domains shown, fully human) VH: EVQLLESGGGLVQPGGSLRLSCAASGFTFRNSAMSWVRQAPGKGLEWVSGISVTGGSTFYTDSVKGRFTVSRDNSRNTLYLQMNSLRAEDTAVYYCAKVYYYSFFDYWGQGTLVTVSS VL: QTVVTQEPSFSVSPGGTVTLTCGFNSGSVSTSYWPSWYQQTPGQAPRTLIYNTNTRSSGVPDRFSGSILGNKAALTITGAQADDESDYYCVLWMGSGIWVFGGGTKLTVLG
